Consider 41 sequences from the nanobody polyreactivity screen of Harvey et al. (2022).

This data set in a line: yeast display, Sf9 membrane polyspecificity reagent, FACS + sequencing; frameworks hold sequencing errors. In a few lines:
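Nanobodies came from a synthetic yeast display library in Saccharomyces cerevisiae BJ5465, induced with galactose for 36–48 hours and stained for 1 hour at 4 °C with 10% biotinylated, detergent-solubilized Sf9 membrane reagent. Cells were enriched on streptavidin microbeads and then FACS-sorted, with low and high (top ~1%) gates set on anti-HA fluorescence for expression and streptavidin fluorescence for reagent binding. Each polyreactivity label reflects the gate a clone came from. Genes were amplified by colony PCR, sequenced by MiSeq 2 × 250 and filtered by CDR length.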
As for “QVQLVESGGGLVQAGGSLRLSCAGSGSTFQNNAMGWYSQAPGKERELVAAISRSSGRRYYADSVKGRFTISRDHAKNTVYCQMNSLKPEDTAGYYCAASLGGYITRYNYWGQGTQVTVSS”, the “polyreactivity (PSR sort gate)” value is listed as “high polyreactivity”.

On to “QVQLVESGGGLVQAGGSLRLSCAGSGSTFRSNALGWYRQEPGKVRELVAAISLRGGSTDYADSVKGRFTISRDNAKNTVYLQMNSLTPEDTAVYFCAKVSKRVGFPTAMNYWGHGTQVTVSS”, for which the “polyreactivity (PSR sort gate)” value was “high polyreactivity”.

In the case of “QVQLVESGGGLVQAGGSLRLSCAHSGFIFCNYAMGWYRHAPGKERELVAAITSGGTSTYYADSVKGRFTISRDNAKNTVYLQMNCLKPEDTAVYFCAAVTGLFSYWDYSAMYYWGQGTQVTVSS”, the “polyreactivity (PSR sort gate)” value is on record as “high polyreactivity”.

Turning to “QVQLVESGGGLVQAGGSLRLSCAHSGYILGGYGMGWYRQAPGKERELVAVITSSGSTDYADSVKGRYTISRDNAMNTVYVQMNTLKPEDSAGYYCAADFLWYIYNIGTSLEYDYWGQGTQVTVSS”, the “polyreactivity (PSR sort gate)” value is “low polyreactivity”.

As for “QVQLVESGGGLVQAGGSLRLSCAMGWYRPAPGKERELVAGITGGGRTHYADSVKGRFTISRDNAKNTVYLQMNSLKPEDTAVYYCAAGGVRSQVPWSWYYYWGQGTQVTVSS”, the “polyreactivity (PSR sort gate)” value was “low polyreactivity”.

Take “QVQLVESGGGLVQAGGSLRLSCAPPDLPSVVMLWDGIDRRLGKKGSSLPLLLLLVVSHADSVKGRFTISRDNAKNTVYLQMNSLKPDDTAVYYCAVAVLPWQLYSESYAEYDYWGQGTQVTVSS”: the “polyreactivity (PSR sort gate)” value was “low polyreactivity”.

In the case of “QVQLVESGGGLVQAGGSLRLSCAPSGFFFYSNTMGWYRQAPGKERELVDTISKRSGNTYYADSVKGRFTISRDFAKNTVYLQMNSLKPEDTSVYYCAADFWVRHKMWYPYTSIQAYNYWGQGTQVTVSS”, the “polyreactivity (PSR sort gate)” value is “high polyreactivity”.

With “QVQLVESGGGLVQAGGSLRLSCAPSGFIFPLYTMGWYTQAPGKERELVAAIDFSGASTYYADSVKGRFTISRDNAKNTVYLLMNSLKPEDTAVYYCATYGSYRITVFYAYYYWGQGTQVTVSS”, the “polyreactivity (PSR sort gate)” value is given as “low polyreactivity”.

As to “QVQLVESGGGLVQAGGSLRLSCAPSGFIFTRYAMGWYRQAPGKERELVAAISWSGGSTYYADSVKGRFTISRDNAKNTVYLQMNSLKPEDTAVYYCAADGSDSYDYWGQGTQVTVSS”, the “polyreactivity (PSR sort gate)” value was “low polyreactivity”.

With “QVQLVESGGGLVQAGGSLRLSCAPSGGTFYSYAMGWYRQAPGKESELVAAISRRGASTYYADSVKGRFTISRDNAKNNVYLQMNSLKPEDTAGYYCAAKGRSYGVTRMYYWGQGTQVTVSS”, the “polyreactivity (PSR sort gate)” value was “high polyreactivity”.

For “QVQLVESGGGLVQAGGSLRLSCAPSGHIFLQNAMGWYRQAPGKERELVAGITYSDTSTYADSVKGRFTISRDNAKNTVYLQMNSLKPEDTAVYYCEYYYWGQGTQVTVSS”, the “polyreactivity (PSR sort gate)” value is on record as “low polyreactivity”.

On to “QVQLVESGGGLVQAGGSLRLSCAPSGITFGEYAMGWYRPAPGKERELVAAISRSGGSTYADSVKGRFTISRDNAKNTVYLQMNSLKPEDTAVYYCAAYSGVGYLWFDYWGQGTQVTVSS”, for which the “polyreactivity (PSR sort gate)” value is reported as “low polyreactivity”.

For “QVQLVESGGGLVQAGGSLRLSCAPSGITFRFYAMGWYRQAPGKEREFVAAISRSDSSYYADSVKGRFTISRDNAKNTVYLHMNSLKPEDSAVYYCAADSYRSAQGLDYWGQGSQVTVSS”, the “polyreactivity (PSR sort gate)” value was “high polyreactivity”.

Turning to “QVQLVESGGGLVQAGGSLRLSCAPSGLILDGNVMGWYRQAPGTERELVAAINTSGGSTYYADSVKGRFTISRDNAKNTVYLQMNSLKPEDTAVYYCAARYPTDYDYWGQGTQVTVSS”, the “polyreactivity (PSR sort gate)” value was “low polyreactivity”.

As for “QVQLVESGGGLVQAGGSLRLSCAPSGLTFTTYAMGWYRQAPGKERELVAAISRRGSRTYYADSVKGRFTISRDNAKNTVYLQMNSLKPEDTAVYYCNALTGSFKTYSFDYWGQGTQVTVSS”, the “polyreactivity (PSR sort gate)” value was “high polyreactivity”.

With “QVQLVESGGGLVQAGGSLRLSCAPSGLTFVGYAMGWYRQAPGKERELVAAISGVGTTNYADSVKGRFTISRDNAKNTVYLQMNSLKPEDTAVYYCATAPYPVPYRLYDYWGQGTQVTVSS”, the “polyreactivity (PSR sort gate)” value is “low polyreactivity”.

For the sequence “QVQLVESGGGLVQAGGSLRLSCAPSGNTFEHYAMGWYRQAPGKERELVAAISYSGGSTYYADSVKGRFTISRDNAKNTVYLQMNSLKPEDTAVYYCNARGRASATGRRGRPDPFGYWGQGTQVTLSS”, the “polyreactivity (PSR sort gate)” value is “high polyreactivity”.

As to “QVQLVESGGGLVQAGGSLRLSCAPSGRIFLPYAMGWYRPAPGKEWELVAGISSGGSTKYADSVKGRFTISRDNAMNTVYLQMNSLKPEDTAVYYCNRRFPIYCSRFGYYYWGQGTQVTVSS”, the “polyreactivity (PSR sort gate)” value was “high polyreactivity”.

For the sequence “QVQLVESGGGLVQAGGSLRLSCAPSGRIFTPYAMGWYRQAPGKERELVAVIRDGSTYYADSVKGRFTISRDNAKNTVYLKMNSLKPEDTAVYYCRYDIWVWWSGAYDYWGQGTQVNVSS”, the “polyreactivity (PSR sort gate)” value is recorded as “low polyreactivity”.

“QVQLVESGGGLVQAGGSLRLSCAPSGRIFVYYTMGWYRQAPGKERELVAAITGSGGSTYYADSVKGRFTISRDNAKYTVYLQMNSLKPVDTAVYYCAVYDSYRKFKYWGQGTQVTVSS”: the “polyreactivity (PSR sort gate)” value was “high polyreactivity”.

As to “QVQLVESGGGLVQAGGSLRLSCAPSGRIFWFNMGCYRQAPGKERELVAAINSGGRTNYADSVKGRFTISRDNAQNTVYLQMNSLKPEDTAVYYCNARYYQVRRWYHYDYSGQGTQVTVSS”, the “polyreactivity (PSR sort gate)” value is given as “high polyreactivity”.

Regarding “QVQLVESGGGLVQAGGSLRLSCAPSGRIFYTKAMGWYRPAPGKERELVATIRISGGNTYYADSVKGRFTISRDNAKNTVYLQMNSLKPEDTAVYYCAARARPRYYRPPYDYWGQGTQVTVSS”, the “polyreactivity (PSR sort gate)” value was “high polyreactivity”.

Consider “QVQLVESGGGLVQAGGSLRLSCAPSGRILAYYAMGWYRQAPGKEREFVAAIDSGSSTNYADSVKGRFTISRDNAKNTVYLQMNSLKPEDTAVYYCAARIRWWYYYLRSQTYYYWGQGTQVTVSS”, for which the “polyreactivity (PSR sort gate)” value was “low polyreactivity”.

Regarding “QVQLVESGGGLVQAGGSLRLSCAPSGRTFGGYVRGRYRQAPGKERELVATITYSGGSTHYADSVKGRFTISRDNAKITVYLQMNSLKPEDTAVYYCARRRSYRYPSEYNYWGQGTQVTVSS”, the “polyreactivity (PSR sort gate)” value was “high polyreactivity”.

As for “QVQLVESGGGLVQAGGSLRLSCAPSGRTFPYYAIGSYRQAPGKERELVARITGSGTSTYYADSVKGRFTISRDNAKNTVYLQMNSLKPEDTAVYYCAAPKYGSYYIADYEYWGQGTQVTVSS”, the “polyreactivity (PSR sort gate)” value is “low polyreactivity”.

Consider “QVQLVESGGGLVQAGGSLRLSCAPSGRTFVSNAMGWYRQAPGKERELVAGINWTDDSTYYADSVKGRFTISRDNAKNTVYLQMNSLKPEDTGVYFCGAYSWEFAWPRFDYWGQGTKVTVSS”, for which the “polyreactivity (PSR sort gate)” value is given as “low polyreactivity”.

With “QVQLVESGGGLVQAGGSLRLSCAPSGRTFVWNAMGWYRQAPVKERELVAAITSGGSTNYADSVKGRFTISRDNAKNTVYLQMNSLKAEDTAVYYCAAYPDYYEDDYWGQGTQVTVSS”, the “polyreactivity (PSR sort gate)” value was “low polyreactivity”.

Take “QVQLVESGGGLVQAGGSLRLSCAPSGRTFWAYAMGWYRQAPGKERELVAAITRSGTTTSYADSVKGRFTISRDNAKNTVYLQMNSLKPEDTAVYYCNARPIRVYINSAQHYDYWGQGTQVTVSS”: the “polyreactivity (PSR sort gate)” value is listed as “high polyreactivity”.

“QVQLVESGGGLVQAGGSLRLSCAPSGRTFYIYAMGWSRQAPGKERELVAAITRSGGSTYYADSVKGRFTISRDNAKNTVYLQMNSLKPEDTAVYYCNARRWITSDYWGQGTQVTVSS”: the “polyreactivity (PSR sort gate)” value is recorded as “high polyreactivity”.

Take “QVQLVESGGGLVQAGGSLRLSCAPSGRTFYTYAMGWYRQAPGKERELVAAITRRGGSTFYADSVKGRFTISLDNAKNPVDLQMNSLKPEDTAVYYCAAGVVWSYSLYSIYEYDYWGQGTQVTVSS”: the “polyreactivity (PSR sort gate)” value is given as “high polyreactivity”.

As to “QVQLVESGGGLVQAGGSLRLSCAPSGRTFYWYTMGWYRQAPGKERELVAAISSSDGSTYYADSVKGRFTISRDNAKNTVYLQMNSLKPEDTAVYYCAADLYYYRYWYRFNYWGQGTQVTVSS”, the “polyreactivity (PSR sort gate)” value was “high polyreactivity”.

With “QVQLVESGGGLVQAGGSLRLSCAPSGRTIGRNAMGWSRQAPGKERELVAAISASGSRTYYAESVKGRFTISRDNAMNTVYLQMNSLKPVDTAVYYCNAVYRTLYYRFYYWGQGTQVTVSS”, the “polyreactivity (PSR sort gate)” value is given as “high polyreactivity”.

With “QVQLVESGGGLVQAGGSLRLSCAPSGRTLRVNTMGWYRQAPGKERELVAAISSGGSRTNYADSVKGRFTISRDNAKNTVYLQMNSLKPEDTAVYYCNKYNRFVYSPPSVYWGQGTQVTVSS”, the “polyreactivity (PSR sort gate)” value is given as “high polyreactivity”.

For the sequence “QVQLVESGGGLVQAGGSLRLSCAPSGRTYLTYVMGWYRQAPGKERELVAAITRGGRTNYADSVKGRFTISRDNAKNTVYLQMNSLQPEDTAVYYCARDIHSVHNNRDKHDYDDWGQGTLVTVSS”, the “polyreactivity (PSR sort gate)” value is recorded as “low polyreactivity”.

On to “QVQLVESGGGLVQAGGSLRLSCAPSGSIFIYYAMGWYRPAPGKERELVAAINIGGSTYYADSVKGRFTISRDNAKNSVYLQMKSLKPEDTAVYYCNAATWYRVYPYYIIYDYWGQGTQVTVSS”, for which the “polyreactivity (PSR sort gate)” value was “low polyreactivity”.

In the case of “QVQLVESGGGLVQAGGSLRLSCAPSGSIFLQYTMGWYRQAPGKERELVAAITESDGSTYYADSVKGRFTISRDNAKNTVYLQMNSLKPEDTAVYYCAADVVYFKYWDKYDYWGQGTQVTVSS”, the “polyreactivity (PSR sort gate)” value was “low polyreactivity”.

In the case of “QVQLVESGGGLVQAGGSLRLSCAPSGSIFPSYAMGWYRQAPGKERELVAAISRSAGSTYYADSVKGRFTISRDNAKNTVYLQMNSLKPEDPAVYYCAADGYSSRYRYDYWGQGTQVTVSS”, the “polyreactivity (PSR sort gate)” value is reported as “low polyreactivity”.

As to “QVQLVESGGGLVQAGGSLRLSCAPSGSIFRKNAMGWYRQAPGKERELVAAITGTGRTTYADSVKGRFTISRDNAKNTVYLQMNSLKPEDTAVYYCAAESVSSGDNASRYDYWGQGTQVTVSS”, the “polyreactivity (PSR sort gate)” value was “low polyreactivity”.

Turning to “QVQLVESGGGLVQAGGSLRLSCAPSGSIFSWYAMGWYRQAPGKERELVAAIDDDDSTNYADSVKGRFTISRDNAKNTVYLQMNSQKPEDTAVYYCNTRSRPYWYIYRPGDYWGQGTQVTVSS”, the “polyreactivity (PSR sort gate)” value is on record as “low polyreactivity”.

Take “QVQLVESGGGLVQAGGSLRLSCAPSGSIFYLNAMGWYRQAPGKERELVAAISKRGSRTYYADSVKGRFTISRDNAKNTVYLQMNSLKPEDTAVYYCNALDTPGYNTEPARQYDHWGQGTQVTVSS”: the “polyreactivity (PSR sort gate)” value is given as “high polyreactivity”.

For “QVQLVESGGGLVQAGGSLRLSCAPSGSIFYRNAMGWYIQAPGKERELVAAISWSAARTYYADSVKGRFTISRDNAKNTVYLQMNSLKPEDTAVYYCATLYSYNYWGQGTQVTVSS”, the “polyreactivity (PSR sort gate)” value was “high polyreactivity”.
